Test results published in patent publication US20250257142A1 (INVETX, published 2025).

T1: extracellular domain of canine IL-31RA fused to murine IgG2A Fc (canine)
T1 construct: also called Canine IL-31RA-murine IgG2A Fc; Canine IL-31RA-mFc
T1 chain: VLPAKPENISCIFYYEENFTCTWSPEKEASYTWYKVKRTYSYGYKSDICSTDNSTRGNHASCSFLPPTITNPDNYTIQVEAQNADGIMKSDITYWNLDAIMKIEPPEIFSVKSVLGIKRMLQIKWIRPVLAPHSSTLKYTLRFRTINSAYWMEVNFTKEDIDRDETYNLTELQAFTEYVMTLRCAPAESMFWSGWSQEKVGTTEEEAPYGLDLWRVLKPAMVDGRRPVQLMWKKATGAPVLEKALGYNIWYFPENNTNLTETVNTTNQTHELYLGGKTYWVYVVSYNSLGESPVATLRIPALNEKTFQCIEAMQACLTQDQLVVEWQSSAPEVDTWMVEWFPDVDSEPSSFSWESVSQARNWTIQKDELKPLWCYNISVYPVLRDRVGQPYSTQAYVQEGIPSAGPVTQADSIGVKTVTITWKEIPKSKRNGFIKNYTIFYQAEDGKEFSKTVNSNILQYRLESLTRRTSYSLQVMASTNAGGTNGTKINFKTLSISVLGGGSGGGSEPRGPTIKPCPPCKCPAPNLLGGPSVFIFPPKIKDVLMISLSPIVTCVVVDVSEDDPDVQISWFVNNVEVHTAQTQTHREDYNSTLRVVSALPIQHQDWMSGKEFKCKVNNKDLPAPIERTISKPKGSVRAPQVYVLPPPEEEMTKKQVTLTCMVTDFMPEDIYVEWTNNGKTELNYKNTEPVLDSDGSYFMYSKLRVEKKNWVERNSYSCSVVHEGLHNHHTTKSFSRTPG


Experiments:
[1] = target: T1, extracellular domain of canine IL-31RA …; assay: SPR Biacore T200, antibody captured on anti-dog H+L chip, canine IL-31RA-mFc as analyte; relative affinity scale: *** 3 pM-100 pM, ** 101 pM-1 nM, * 1.1 nM-20 nM (avidity)
Protocol: (§1) Seven days following the transient transfection, the IgG in the conditioned medium was purified using MabSelect SuRe chromatography. The antibodies were buffer-exchanged into PBS, pH 7.4. The relative affinity of the variants was determined by SPR on a Biacore T200. The antibody was captured using a CM5 Series S chip amine coupled with an anti-dog H+L antibody (Jackson Immunoresearch). Canine IL-31RA-mFc (100 nM, 50 nM, 25 nM, 12.5 nM, 6.25 nM, 3.625 nM) solutions in 1×HBS-EP+ was flown over the sensor chip for a contact time of 120 s and a dissociation time of 600 s at a flow rate of […]. Double reference-subtracted sensorgrams were fitted to a 1:1 binding model using Biacore T200 Evaluation software. The canine IL-31RA antigen was both a dimer and aggregated so there were avidity effects with the measured affinities. […] Following the initial results with the single variants, a heavy chain containing the W53F variant and the M118I variant was synthesized and subcloned into pcDNA 3.4 (SEQ ID NO:18). The same methods as described above for expression and purification of the variant along with measuring the relative affinity were used to determine the relative affinity of the W53F/M118I heavy chain variant combined with the S95A light chain and the N94Q light chain variants.

[2] = target: T1, extracellular domain of canine IL-31RA …; assay: as above
Protocol: as §1, with “The different heavy and light chain combinations were co-transfected into ExpiCHO cells using the ExpiCHO transfection kit (ThermoFisher; Cat. #A29133). Seven” for “Seven”

binding result [1] | relative affinity (apparent KD by SPR) [2] [nM] | Binder
binds | – | 186-95 heavy chain M106L variant with wild-type light chain (antibody, V domains shown, Canine IgGB/kappa; signal peptides left out; also called M106L / Wild-type) VH: EVQLVESGGDLVKPGGSLRLSCVASGFTFSSYAMSWVRQAPGKGLQWVSAISGSGNSTYYADAVKGRFTISRDNAKNTLYLQMNSLRAEDTAVYYCATQVVYYFKLDVWGQGTLVTVSS VL: EIVMTQSPGSLAGSAGESVSINCKSSQSVSSNLAWYQQKPGERPKLLIYGASTRASGVPARFSSSGSGTDFTLTINNLQAEDVGDYYCQQYYNWPPFTFGQGTKLEIKR
binds | – | 186-95 heavy chain M106I variant with wild-type light chain (antibody, V domains shown, Canine IgGB/kappa; signal peptides left out; also called M106I / Wild-type) VH: EVQLVESGGDLVKPGGSLRLSCVASGFTFSSYAMSWVRQAPGKGLQWVSAISGSGNSTYYADAVKGRFTISRDNAKNTLYLQMNSLRAEDTAVYYCATQVVYYFKIDVWGQGTLVTVSS VL: EIVMTQSPGSLAGSAGESVSINCKSSQSVSSNLAWYQQKPGERPKLLIYGASTRASGVPARFSSSGSGTDFTLTINNLQAEDVGDYYCQQYYNWPPFTFGQGTKLEIKR
binds | – | 186-95 heavy chain N56Q variant with wild-type light chain (antibody, V domains shown, Canine IgGB/kappa; signal peptides left out; also called N56Q / Wild-type) VH: EVQLVESGGDLVKPGGSLRLSCVASGFTFSSYAMSWVRQAPGKGLQWVSAISGSGQSTYYADAVKGRFTISRDNAKNTLYLQMNSLRAEDTAVYYCATQVVYYFKMDVWGQGTLVTVSS VL: EIVMTQSPGSLAGSAGESVSINCKSSQSVSSNLAWYQQKPGERPKLLIYGASTRASGVPARFSSSGSGTDFTLTINNLQAEDVGDYYCQQYYNWPPFTFGQGTKLEIKR
binds | – | 186-95 heavy chain N56Q + M106L variant with light chain W94Y variant (antibody, V domains shown, Canine IgGB/kappa; signal peptides left out; also called N56Q-M106L / W94Y) VH: EVQLVESGGDLVKPGGSLRLSCVASGFTFSSYAMSWVRQAPGKGLQWVSAISGSGQSTYYADAVKGRFTISRDNAKNTLYLQMNSLRAEDTAVYYCATQVVYYFKLDVWGQGTLVTVSS VL: EIVMTQSPGSLAGSAGESVSINCKSSQSVSSNLAWYQQKPGERPKLLIYGASTRASGVPARFSSSGSGTDFTLTINNLQAEDVGDYYCQQYYNYPPFTFGQGTKLEIKR
– | 0.003 to 0.1 | 109-49 heavy chain M118I variant with wild-type light chain (antibody, V domains shown, Canine IgGB/kappa; signal peptides left out; also called M118I / Wild-type) VH: EVQLVESGGDLVKPGGSLRLSCVASGFTFDDYGMSWVRQAPGKGLQWVSGINWAGGTIGYADAVKGRFTISRDNARNTVYLQMNSLRAEDTAVYYCARESPLRLGDLGGDYFYYYYYIDVWGQGTLVTVSS VL: EVVMIQTPLSLSVSPGEPASISCRASQSVSSRYLVWYLQKPGQSPQLLIYGTSSRATGVSDRFSGSGSGTDFTLRISRVEAEDVGVYYCQQYDNSPRTFGQGTKVEIKR
– | 0.101 to 1 | 109-49 wild-type heavy chain with light chain N94Q variant (antibody, V domains shown, Canine IgGB/kappa; signal peptides left out; also called Wild-type / N94Q) VH: EVQLVESGGDLVKPGGSLRLSCVASGFTFDDYGMSWVRQAPGKGLQWVSGINWAGGTIGYADAVKGRFTISRDNARNTVYLQMNSLRAEDTAVYYCARESPLRLGDLGGDYFYYYYYMDVWGQGTLVTVSS VL: EVVMIQTPLSLSVSPGEPASISCRASQSVSSRYLVWYLQKPGQSPQLLIYGTSSRATGVSDRFSGSGSGTDFTLRISRVEAEDVGVYYCQQYDQSPRTFGQGTKVEIKR
– | 0.003 to 0.1 | caninized antibody clone 109-49 (antibody, V domains shown, Canine IgGB and canine kappa constant domains) VH: EVQLVESGGDLVKPGGSLRLSCVASGFTFDDYGMSWVRQAPGKGLQWVSGINWAGGTIGYADAVKGRFTISRDNARNTVYLQMNSLRAEDTAVYYCARESPLRLGDLGGDYFYYYYYMDVWGQGTLVTVSS VL: EVVMIQTPLSLSVSPGEPASISCRASQSVSSRYLVWYLQKPGQSPQLLIYGTSSRATGVSDRFSGSGSGTDFTLRISRVEAEDVGVYYCQQYDNSPRTFGQGTKVEIKR
– | 1.1 to 20 | 109-49 heavy chain W53F + M118I variant with light chain N94Q variant (antibody, V domains shown, Canine IgGB/kappa; signal peptides left out; also called W53F-M118I / N94Q) VH: EVQLVESGGDLVKPGGSLRLSCVASGFTFDDYGMSWVRQAPGKGLQWVSGINFAGGTIGYADAVKGRFTISRDNARNTVYLQMNSLRAEDTAVYYCARESPLRLGDLGGDYFYYYYYIDVWGQGTLVTVSS VL: EVVMIQTPLSLSVSPGEPASISCRASQSVSSRYLVWYLQKPGQSPQLLIYGTSSRATGVSDRFSGSGSGTDFTLRISRVEAEDVGVYYCQQYDQSPRTFGQGTKVEIKR
– | 1.1 to 20 | 109-49 heavy chain W53Y variant with wild-type light chain (antibody, V domains shown, Canine IgGB/kappa; signal peptides left out; also called W53Y / Wild-type) VH: EVQLVESGGDLVKPGGSLRLSCVASGFTFDDYGMSWVRQAPGKGLQWVSGINYAGGTIGYADAVKGRFTISRDNARNTVYLQMNSLRAEDTAVYYCARESPLRLGDLGGDYFYYYYYMDVWGQGTLVTVSS VL: EVVMIQTPLSLSVSPGEPASISCRASQSVSSRYLVWYLQKPGQSPQLLIYGTSSRATGVSDRFSGSGSGTDFTLRISRVEAEDVGVYYCQQYDNSPRTFGQGTKVEIKR
– | 1.1 to 20 | 109-49 heavy chain M118L variant with wild-type light chain (antibody, V domains shown, Canine IgGB/kappa; signal peptides left out; also called M118L / Wild-type) VH: EVQLVESGGDLVKPGGSLRLSCVASGFTFDDYGMSWVRQAPGKGLQWVSGINWAGGTIGYADAVKGRFTISRDNARNTVYLQMNSLRAEDTAVYYCARESPLRLGDLGGDYFYYYYYLDVWGQGTLVTVSS VL: EVVMIQTPLSLSVSPGEPASISCRASQSVSSRYLVWYLQKPGQSPQLLIYGTSSRATGVSDRFSGSGSGTDFTLRISRVEAEDVGVYYCQQYDNSPRTFGQGTKVEIKR
– | 1.1 to 20 | 109-49 heavy chain W53F variant with wild-type light chain (antibody, V domains shown, Canine IgGB/kappa; signal peptides left out; also called W53F / Wild-type) VH: EVQLVESGGDLVKPGGSLRLSCVASGFTFDDYGMSWVRQAPGKGLQWVSGINFAGGTIGYADAVKGRFTISRDNARNTVYLQMNSLRAEDTAVYYCARESPLRLGDLGGDYFYYYYYMDVWGQGTLVTVSS VL: EVVMIQTPLSLSVSPGEPASISCRASQSVSSRYLVWYLQKPGQSPQLLIYGTSSRATGVSDRFSGSGSGTDFTLRISRVEAEDVGVYYCQQYDNSPRTFGQGTKVEIKR
– | 0.003 to 0.1 | 109-49 heavy chain M118I variant with light chain N94Q variant (antibody, V domains shown, Canine IgGB/kappa; signal peptides left out; also called M118I / N94Q) VH: EVQLVESGGDLVKPGGSLRLSCVASGFTFDDYGMSWVRQAPGKGLQWVSGINWAGGTIGYADAVKGRFTISRDNARNTVYLQMNSLRAEDTAVYYCARESPLRLGDLGGDYFYYYYYIDVWGQGTLVTVSS VL: EVVMIQTPLSLSVSPGEPASISCRASQSVSSRYLVWYLQKPGQSPQLLIYGTSSRATGVSDRFSGSGSGTDFTLRISRVEAEDVGVYYCQQYDQSPRTFGQGTKVEIKR
– | 0.003 to 0.1 | 109-49 wild-type heavy chain with light chain S95A variant (antibody, V domains shown, Canine IgGB/kappa; signal peptides left out; also called Wild-type / S95A) VH: EVQLVESGGDLVKPGGSLRLSCVASGFTFDDYGMSWVRQAPGKGLQWVSGINWAGGTIGYADAVKGRFTISRDNARNTVYLQMNSLRAEDTAVYYCARESPLRLGDLGGDYFYYYYYMDVWGQGTLVTVSS VL: EVVMIQTPLSLSVSPGEPASISCRASQSVSSRYLVWYLQKPGQSPQLLIYGTSSRATGVSDRFSGSGSGTDFTLRISRVEAEDVGVYYCQQYDNAPRTFGQGTKVEIKR
– | 1.1 to 20 | 109-49 heavy chain W53F + M118I variant with light chain S95A variant (antibody, V domains shown, Canine IgGB/kappa; signal peptides left out; also called W53F-M118I / S95A) VH: EVQLVESGGDLVKPGGSLRLSCVASGFTFDDYGMSWVRQAPGKGLQWVSGINFAGGTIGYADAVKGRFTISRDNARNTVYLQMNSLRAEDTAVYYCARESPLRLGDLGGDYFYYYYYIDVWGQGTLVTVSS VL: EVVMIQTPLSLSVSPGEPASISCRASQSVSSRYLVWYLQKPGQSPQLLIYGTSSRATGVSDRFSGSGSGTDFTLRISRVEAEDVGVYYCQQYDNAPRTFGQGTKVEIKR
